Assay results from patent US20140087995A1 (published 2014).
Numbered stars: 1 amine (or outer) side, 2 acyl side, 3 side chain; on linkers, the order of the positions; unused ones are H or OH. Bridge positions count the residues as written; N and C are the ends. Side chains are listed from the residue outwards. Ends that are not written are not given here. * marks the point of attachment. C20 diacid = O=C(O)CCCCCCCCCCCCCCCCCCC(=O)*; γGlu = O=C(O)[C@H](CCC(=O)[*:2])N[*:1]

Experiments:
[1] = target: T1, rat amylin receptor (rat calcitonin receptor + rat RAMP 3) (rat, UniProt P32214 25-516; Q9JJ73 23-147); assay: SPA competition vs 125I-rat amylin, membranes (Assay VI)
T1 construct: whole, on cells; Membranes prepared from transiently transfected BHK tk'ts 13 cells; also called rAmylin-R; rat amylin 3(a) receptor
T1 sequence (looked up) 1: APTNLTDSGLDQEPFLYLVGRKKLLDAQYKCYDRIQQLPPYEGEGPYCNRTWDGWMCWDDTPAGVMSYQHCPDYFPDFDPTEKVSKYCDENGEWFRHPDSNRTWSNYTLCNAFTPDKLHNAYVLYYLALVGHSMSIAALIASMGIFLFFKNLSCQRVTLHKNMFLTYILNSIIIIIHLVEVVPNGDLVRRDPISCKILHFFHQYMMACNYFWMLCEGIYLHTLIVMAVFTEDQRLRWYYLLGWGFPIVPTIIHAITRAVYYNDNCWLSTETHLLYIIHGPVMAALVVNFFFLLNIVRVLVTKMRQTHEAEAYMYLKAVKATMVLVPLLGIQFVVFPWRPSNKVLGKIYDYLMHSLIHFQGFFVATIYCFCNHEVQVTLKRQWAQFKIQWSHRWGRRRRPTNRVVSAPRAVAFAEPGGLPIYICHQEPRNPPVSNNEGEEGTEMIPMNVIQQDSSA
T1 sequence (looked up) 2: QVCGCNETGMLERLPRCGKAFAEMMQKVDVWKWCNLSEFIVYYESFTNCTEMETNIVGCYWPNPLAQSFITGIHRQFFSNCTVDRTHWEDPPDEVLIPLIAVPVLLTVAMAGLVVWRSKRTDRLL

[2] = target: T2, human calcitonin receptor (human, UniProt P30988 25-474); assay: ratio of IC50 on human calcitonin receptor to IC50 on human amylin receptor
T2 construct: whole, on cells; Membranes from stably transfected BHK cells; also called hCTR; hCT
T2 sequence (looked up): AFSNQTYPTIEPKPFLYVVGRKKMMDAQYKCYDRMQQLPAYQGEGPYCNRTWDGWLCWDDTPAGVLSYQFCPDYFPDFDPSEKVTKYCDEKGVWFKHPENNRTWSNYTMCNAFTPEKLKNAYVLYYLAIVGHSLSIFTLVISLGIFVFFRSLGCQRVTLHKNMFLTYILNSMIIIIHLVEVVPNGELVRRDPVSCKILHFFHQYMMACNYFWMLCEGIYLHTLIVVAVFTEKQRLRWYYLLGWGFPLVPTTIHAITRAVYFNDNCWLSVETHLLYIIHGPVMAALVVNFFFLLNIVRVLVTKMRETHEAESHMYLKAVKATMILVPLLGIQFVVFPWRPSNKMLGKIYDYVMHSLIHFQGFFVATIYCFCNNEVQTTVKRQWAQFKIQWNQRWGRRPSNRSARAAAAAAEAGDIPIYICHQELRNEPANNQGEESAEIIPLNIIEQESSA
Summary of the method: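 Scintillation proximity competition binding on cell membranes at 35 ng/μL with SPA beads, in 50 mM Hepes pH 7.4, 1 mM CaCl2, 5 mM MgCl₂, 0.1% OA, 0.02% Tween20. Incubated 120 min at 25° C with shaking. IC₅₀ from one-site competition fit.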

rat calcitonin receptor [3] = target: T3, rat calcitonin receptor (rat, UniProt P32214 25-516); assay: ratio of IC50 on rat calcitonin receptor to IC50 on rat amylin receptor
T3 construct: whole, on cells; Membranes prepared from transiently transfected BHK tk'ts 13 cells; also called rCTR; rat calcitonin (a) receptor
T3 sequence (looked up): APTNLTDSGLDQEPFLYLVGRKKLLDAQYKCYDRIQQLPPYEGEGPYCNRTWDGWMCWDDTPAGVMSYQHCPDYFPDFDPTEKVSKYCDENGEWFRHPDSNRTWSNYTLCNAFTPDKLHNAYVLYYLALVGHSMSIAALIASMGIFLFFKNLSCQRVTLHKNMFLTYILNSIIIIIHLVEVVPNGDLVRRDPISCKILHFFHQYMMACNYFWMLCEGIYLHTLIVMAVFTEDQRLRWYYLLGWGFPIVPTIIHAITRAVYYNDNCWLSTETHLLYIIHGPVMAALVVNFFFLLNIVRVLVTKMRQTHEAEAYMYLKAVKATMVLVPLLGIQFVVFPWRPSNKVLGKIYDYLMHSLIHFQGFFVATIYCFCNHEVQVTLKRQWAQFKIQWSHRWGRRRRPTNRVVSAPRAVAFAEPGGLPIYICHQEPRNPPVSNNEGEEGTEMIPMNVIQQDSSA

rat calcitonin receptor [4] = target: T3, rat calcitonin receptor; assay: SPA competition vs 125I-calcitonin, membranes (Assay VIII)

B1: N^ε1-[(4S)-4-carboxy-4-[[(4S)-4-carboxy-4-(19-carboxynonadecanoylamino)butanoyl]amino]butanoyl]-[Glu14,Arg17,Pro21,Pro27,Pro34,Arg35]-h-amylin (peptide)
peptide: K([γGlu-γGlu-C20 diacid])CNTATCATQRLAEFLRHSSPNFGAIPSSTNVGPRTY-NH2
modifications: disulfide 2-7; N-terminus assumed
SMILES: CC[C@H](C)[C@H](NC(=O)[C@H](C)NC(=O)CNC(=O)[C@H](Cc1ccccc1)NC(=O)[C@H](CC(N)=O)NC(=O)[C@@H]1CCCN1C(=O)[C@H](CO)NC(=O)[C@H](CO)NC(=O)[C@H](Cc1c[nH]cn1)NC(=O)[C@H](CCCNC(=N)N)NC(=O)[C@H](CC(C)C)NC(=O)[C@H](Cc1ccccc1)NC(=O)[C@H](CCC(=O)O)NC(=O)[C@H](C)NC(=O)[C@H](CC(C)C)NC(=O)[C@H](CCCNC(=N)N)NC(=O)[C@H](CCC(N)=O)NC(=O)[C@@H](NC(=O)[C@H](C)NC(=O)[C@@H]1CSSC[C@H](NC(=O)[C@@H](N)CCCCNC(=O)CC[C@H](NC(=O)CC[C@H](NC(=O)CCCCCCCCCCCCCCCCCCC(=O)O)C(=O)O)C(=O)O)C(=O)N[C@@H](CC(N)=O)C(=O)N[C@@H]([C@@H](C)O)C(=O)N[C@@H](C)C(=O)N[C@@H]([C@@H](C)O)C(=O)N1)[C@@H](C)O)C(=O)N1CCC[C@H]1C(=O)N[C@@H](CO)C(=O)N[C@@H](CO)C(=O)N[C@H](C(=O)N[C@@H](CC(N)=O)C(=O)N[C@H](C(=O)NCC(=O)N1CCC[C@H]1C(=O)N[C@@H](CCCNC(=N)N)C(=O)N[C@H](C(=O)N[C@@H](Cc1ccc(O)cc1)C(N)=O)[C@@H](C)O)C(C)C)[C@@H](C)O
notes: also called compound 110
[1]
  IC50: 0.339 nM
[2]
  Ratio hCT/hAmylin binding: 53.6
Rat calcitonin receptor [3]
  Ratio rCT/rAmylin binding: 113
Rat calcitonin receptor [4]
  IC50: 38.3 nM

## K([γGlu-γGlu-C20 diacid])CNTATCATQRLAEFLRHSSPNFGAIPSSTNVGPHTY-NH2 (disulfide 2-7 (inferred))
[1]
  IC50: 0.288 nM
[2]
  Ratio hCT/hAmylin binding: 27.3
Rat calcitonin receptor [3]
  Ratio rCT/rAmylin binding: 73
Rat calcitonin receptor [4]
  IC50: 21 nM

B2: N^ε1-[(4S)-4-carboxy-4-[[(4S)-4-carboxy-4-(19-carboxynonadecanoylamino)butanoyl]amino]butanoyl]-[Glu14,Arg17,Pro21,Pro27,Pro34,Phe37]-h-amylin (peptide)
peptide: K([γGlu-γGlu-C20 diacid])CNTATCATQRLAEFLRHSSPNFGAIPSSTNVGPNTF-NH2
modifications: disulfide 2-7; N-terminus assumed
SMILES: CC[C@H](C)[C@H](NC(=O)[C@H](C)NC(=O)CNC(=O)[C@H](Cc1ccccc1)NC(=O)[C@H](CC(N)=O)NC(=O)[C@@H]1CCCN1C(=O)[C@H](CO)NC(=O)[C@H](CO)NC(=O)[C@H](Cc1c[nH]cn1)NC(=O)[C@H](CCCNC(=N)N)NC(=O)[C@H](CC(C)C)NC(=O)[C@H](Cc1ccccc1)NC(=O)[C@H](CCC(=O)O)NC(=O)[C@H](C)NC(=O)[C@H](CC(C)C)NC(=O)[C@H](CCCNC(=N)N)NC(=O)[C@H](CCC(N)=O)NC(=O)[C@@H](NC(=O)[C@H](C)NC(=O)[C@@H]1CSSC[C@H](NC(=O)[C@@H](N)CCCCNC(=O)CC[C@H](NC(=O)CC[C@H](NC(=O)CCCCCCCCCCCCCCCCCCC(=O)O)C(=O)O)C(=O)O)C(=O)N[C@@H](CC(N)=O)C(=O)N[C@@H]([C@@H](C)O)C(=O)N[C@@H](C)C(=O)N[C@@H]([C@@H](C)O)C(=O)N1)[C@@H](C)O)C(=O)N1CCC[C@H]1C(=O)N[C@@H](CO)C(=O)N[C@@H](CO)C(=O)N[C@H](C(=O)N[C@@H](CC(N)=O)C(=O)N[C@H](C(=O)NCC(=O)N1CCC[C@H]1C(=O)N[C@@H](CC(N)=O)C(=O)N[C@H](C(=O)N[C@@H](Cc1ccccc1)C(N)=O)[C@@H](C)O)C(C)C)[C@@H](C)O
[1]
  IC50: 0.205 nM
[2]
  Ratio hCT/hAmylin binding: 18
Rat calcitonin receptor [3]
  Ratio rCT/rAmylin binding: 114
Rat calcitonin receptor [4]
  IC50: 23.4 nM

## K([γGlu-γGlu-C20 diacid])CNTATCATQRLAEFLRHSSPNFGAILSSTPVGPETY-NH2 (disulfide 2-7)
[1]
  IC50: 0.449 nM
[2]
  Ratio hCT/hAmylin binding: 22.6
Rat calcitonin receptor [3]
  Ratio rCT/rAmylin binding: 74.7
Rat calcitonin receptor [4]
  IC50: 33.5 nM

B3: N^ε1-[(4S)-4-carboxy-4-[[(4S)-4-carboxy-4-(19-carboxynonadecanoylamino)butanoyl]amino]butanoyl]-[Ser14,Arg17,Pro21,Pro27,Pro34,Glu35]-h-amylin (peptide)
peptide: K([γGlu-γGlu-C20 diacid])CNTATCATQRLASFLRHSSPNFGAIPSSTNVGPETY-NH2
modifications: disulfide 2-7; N-terminus assumed
SMILES: CC[C@H](C)[C@H](NC(=O)[C@H](C)NC(=O)CNC(=O)[C@H](Cc1ccccc1)NC(=O)[C@H](CC(N)=O)NC(=O)[C@@H]1CCCN1C(=O)[C@H](CO)NC(=O)[C@H](CO)NC(=O)[C@H](Cc1c[nH]cn1)NC(=O)[C@H](CCCNC(=N)N)NC(=O)[C@H](CC(C)C)NC(=O)[C@H](Cc1ccccc1)NC(=O)[C@H](CO)NC(=O)[C@H](C)NC(=O)[C@H](CC(C)C)NC(=O)[C@H](CCCNC(=N)N)NC(=O)[C@H](CCC(N)=O)NC(=O)[C@@H](NC(=O)[C@H](C)NC(=O)[C@@H]1CSSC[C@H](NC(=O)[C@@H](N)CCCCNC(=O)CC[C@H](NC(=O)CC[C@H](NC(=O)CCCCCCCCCCCCCCCCCCC(=O)O)C(=O)O)C(=O)O)C(=O)N[C@@H](CC(N)=O)C(=O)N[C@@H]([C@@H](C)O)C(=O)N[C@@H](C)C(=O)N[C@@H]([C@@H](C)O)C(=O)N1)[C@@H](C)O)C(=O)N1CCC[C@H]1C(=O)N[C@@H](CO)C(=O)N[C@@H](CO)C(=O)N[C@H](C(=O)N[C@@H](CC(N)=O)C(=O)N[C@H](C(=O)NCC(=O)N1CCC[C@H]1C(=O)N[C@@H](CCC(=O)O)C(=O)N[C@H](C(=O)N[C@@H](Cc1ccc(O)cc1)C(N)=O)[C@@H](C)O)C(C)C)[C@@H](C)O
notes: also called compound 120
[1]
  IC50: 0.161 nM
[2]
  Ratio hCT/hAmylin binding: 45.3
Rat calcitonin receptor [3]
  Ratio rCT/rAmylin binding: 868
Rat calcitonin receptor [4]
  IC50: 140 nM

B4: N^-1-[(4S)-4-carboxy-4-(19-carboxynonadecanoylamino)butanoyl]-Gly[Arg1,His14,Arg17,Pro21,Pro27,His34]-h-amylin (peptide)
peptide: {C20 diacid-γGlu}-GRCNTATCATQRLAHFLRHSSPNFGAIPSSTNVGHNTY-NH2
modifications: disulfide 3-8
SMILES: CC[C@H](C)[C@H](NC(=O)[C@H](C)NC(=O)CNC(=O)[C@H](Cc1ccccc1)NC(=O)[C@H](CC(N)=O)NC(=O)[C@@H]1CCCN1C(=O)[C@H](CO)NC(=O)[C@H](CO)NC(=O)[C@H](Cc1c[nH]cn1)NC(=O)[C@H](CCCNC(=N)N)NC(=O)[C@H](CC(C)C)NC(=O)[C@H](Cc1ccccc1)NC(=O)[C@H](Cc1c[nH]cn1)NC(=O)[C@H](C)NC(=O)[C@H](CC(C)C)NC(=O)[C@H](CCCNC(=N)N)NC(=O)[C@H](CCC(N)=O)NC(=O)[C@@H](NC(=O)[C@H](C)NC(=O)[C@@H]1CSSC[C@H](NC(=O)[C@H](CCCNC(=N)N)NC(=O)CNC(=O)CC[C@H](NC(=O)CCCCCCCCCCCCCCCCCCC(=O)O)C(=O)O)C(=O)N[C@@H](CC(N)=O)C(=O)N[C@@H]([C@@H](C)O)C(=O)N[C@@H](C)C(=O)N[C@@H]([C@@H](C)O)C(=O)N1)[C@@H](C)O)C(=O)N1CCC[C@H]1C(=O)N[C@@H](CO)C(=O)N[C@@H](CO)C(=O)N[C@H](C(=O)N[C@@H](CC(N)=O)C(=O)N[C@H](C(=O)NCC(=O)N[C@@H](Cc1c[nH]cn1)C(=O)N[C@@H](CC(N)=O)C(=O)N[C@H](C(=O)N[C@@H](Cc1ccc(O)cc1)C(N)=O)[C@@H](C)O)C(C)C)[C@@H](C)O
notes: also called compound 100
[1]
  IC50: 11.2 nM
[2]
  Ratio hCT/hAmylin binding: 65.3
Rat calcitonin receptor [3]
  Ratio rCT/rAmylin binding: 27.7
Rat calcitonin receptor [4]
  IC50: 311 nM
